According to patent publication US20260034194A1, “PHARMACEUTICAL COMPOSITIONS AND METHODS OF TREATING PSP” (priority 2022, published 2026):
Changes are numbered by the printed parent chain. Names may count otherwise. “Also recorded” adds a separate entry of the source.

Assay type: binding
Conditions: for STX/F-STX affinity compared with RcSxph / Kd: FP; for Kd: 1 nM F-STX, 25° C., errors S.D.; for ΔΔG: ΔΔG = RT ln(Kd mutant or XSxph/Kd RcSxph), T = 298K, FP with F-STX

B1: RiSxph: Ranitomeya imitator (Mimic poison frog) saxiphilin, SEQ ID NO: 6 (protein)
chain: MRRSSYAASQEMRMTLRVLLCLCLWALSSAAPNTRNVRWCVTSDTEEQKCNDLVTSCHVDEILLICVKKSSTEDCVRAISNGEADAISLDSKDVYKASLDPFNLKPIMTEAYSESEHTPCMRHRQSVLGGKIMKIGAFVPKCDEKGNYVPKQCHGSTGYCWCLNENGEEIEGTRTPPGNPGLTCENKANKPPCLKERQKLLSAKPSPAVFVPECDEKGNYRPQQSHVYSWCVDEYGEEVFGSRSFPGKPPKPCEASGETPCIKERNKVLSAAEPLLGAFVPDCDEKGYFSPLQSHGSTGYSWCVTKNGDEIKGTRTGPGQSPPTCEVPAPVTLHYAVAVVKKSSSFHLDQLKGKRSCHSAVGEAAGWVAPLNVLLKKKLLLWEEPEPKTIEKVASEIFSASCAPGAQEANLCEQCAGQEDKCTRGPGEPYYGDEGAFRCLREDKGDVAFVEDTALTGQYSDNFELLCPDNTRRPLSQYKICNFGRIPRHAVVTRSSGDKMKDITEYLLQAQKKECKLFSSTHGKDLLFEDTTSALIALPSAMDTFLFLGPDLFNGMKTLNGARPPQVNQQIRWCPQSKNEKKKCDDWSSVSGGAIKCTEPSSGLECIKMILKGEAEAVNLDIEHSYIALKCGLLPSVDEYRNKDDLIPCQIPGSEYSEFGSYRIVALVKKTDKDLTWNNLQGKKSCHTRAGDMIGWNIPVYLISKKTKNCDLGSYFSQSCAPGSPIDSNLCKLCIGDPQNPQANTKCSISDKEAYYGHEGAIRCLVEKGDVAFVPHTAIFENTDGKNPALWAKDLKSTDFELLCPDGSRAPVNDYKKCKLSGIANQIAITRPESVKDVVRIIQNQQSLYGRTGSQKDIFQMFSSSYGQNLLFSDRTQCLVEFDRMLDRDIMDDYFGKPFHKHLLRDNDCLPKSALASACSFHH
modifications: Ranitomeya imitator
For B1, the “STX/F-STX affinity compared with RcSxph” value was “higher affinity for STX than RcSxph; also recorded: binds STX more strongly than RcSxph”, the Kd was 0.8 ± 0.3 nM and the “ΔΔG” value was -1.32 kcal/mol.

B2: E540Q: RcSxph STX binding pocket mutant E540Q (protein)
chain: MAPTFQTALFFTIISLSFAAPNAKQVRWCAISDLEQKKCNDLVGSCNVPDITLVCVLRSSTEDCMTAIKDGQADAMFLDSGEVYEASKDPYNLKPIIAEPYSSNRDLQKCLKERQQALAKKMIGHYIPQCDEKGNYQPQQCHGSTGHCWCVNAMGEKISGTNTPPGQTRATCERHELPKCLKERQVALGGDEKVLGRFVPQCDEKGNYEPQQFHGSTGYSWCVNAIGEEIAGTKTPPGKIPATCQKHDLVTTCHYAVAMVKKSSAFQFNQLKGKRSCHSGVSKTDGWKALVTVLVEKKLLSWDGPAKESIQRAMSKFFSVSCIPGATQTNLCKQCKGEEGKNCKNSHDEPYYGNYGAFRCLKEDMGDVAFLRSTALSDEHSEVYELLCPDNTRKPLNKYKECNLGTVPAGTVVTRKISDKTEDINNFLMEAQKRQCKLFSSAHGKDLMFDDSTLQLALLSSEVDAFLYLGVKLFHAMKALTGDAHLPSKNKVRWCTINKLEKMKCDDWSAVSGGAIACTEASCPKGCVKQILKGEADAVKLEVQYMYEALMCGLLPAVQEYHNKDDFGPCKTPGSPYTDFGTLRAVALVKKSNKDINWNNIKGKKSCHTGVGDIAGWVIPVSLIRRQNDNSDIDSFFGESCAPGSDTKSNLCKLCIGDPKNSAANTKCSLSDKEAYYGNQGAFRCLVEKGDVAFVPHTVVFENTDGKNPAVWAKNLKSEDFELLCLDGSRAPVSNYKSCKLSGIPPPAIVTREESISDVVRIVANQQSLYGRKGFEKDMFQLFSSNKGNNLLFNDNTQCLITFDRQPKDIMEDYFGKPYYTTVYGASRSAMSSELISACTIKHC
For B2, the Kd was 10600 ± 1320 nM and the “ΔΔG” value was 4.30 kcal/mol.

B3: Q787E: RcSxph STX binding pocket mutant Q787E (protein)
chain: B2 chain with Q559E, Q806E
With B3 the Kd was 6.4 ± 1.6 nM and the “ΔΔG” value was -0.09 kcal/mol.

B4: F784L: RcSxph STX binding pocket mutant F784L (protein)
chain: B2 chain with Q559E, F803L
With B4 the Kd was 48 ± 6.8 nM and the “ΔΔG” value was 1.11 kcal/mol.

B5: T563A: RcSxph STX binding pocket mutant T563A (protein)
chain: B2 chain with Q559E, T582A
For B5, the Kd was 5.3 ± 0.5 nM and the “ΔΔG” value was -0.20 kcal/mol.

B6: F784Y: RcSxph STX binding pocket mutant F784Y (protein)
chain: B2 chain with Q559E, F803Y
For B6, the Kd was 13.8 ± 1 nM and the “ΔΔG” value was 0.37 kcal/mol.

B7: Y558F: RcSxph STX binding pocket mutant Y558F (protein)
chain: B2 chain with Q559E, Y577F
With B7 the Kd was 6.3 ± 2.3 nM and the “ΔΔG” value was -0.10 kcal/mol.

B8: D785A: RcSxph STX binding pocket mutant D785A (protein)
chain: B2 chain with Q559E, D804A
For B8, the Kd was 19.5 ± 2.5 nM and the “ΔΔG” value was 0.57 kcal/mol.

B9: Y795A: RcSxph STX binding pocket mutant Y795A (protein)
chain: B2 chain with Q559E, Y814A
For B9, the Kd was 8.4 ± 2.1 nM and the “ΔΔG” value was 0.08 kcal/mol.

B10: Q787A: RcSxph STX binding pocket mutant Q787A (protein)
chain: B2 chain with Q559E, Q806A
For B10, the Kd was 11.3 ± 1.1 nM and the “ΔΔG” value was 0.25 kcal/mol.

B11: F784A: RcSxph STX binding pocket mutant F784A (protein)
chain: B2 chain with Q559E, F803A
In the case of B11, the Kd is reported as 725 ± 109 nM and the “ΔΔG” value is reported as 2.71 kcal/mol.

B12: D794N: RcSxph STX binding pocket mutant D794N (protein)
chain: B2 chain with Q559E, D813N
With B12 the Kd was 3230 ± 397 nM and the “ΔΔG” value was 3.60 kcal/mol.

B13: F784C: RcSxph STX binding pocket mutant F784C (protein)
chain: B2 chain with Q559E, F803C
With B13 the Kd was 1510 ± 346 nM and the “ΔΔG” value was 3.15 kcal/mol.

B14: K789A: RcSxph STX binding pocket mutant K789A (protein)
chain: B2 chain with Q559E, K808A
For B14, the Kd was 5.1 ± 1.7 nM and the “ΔΔG” value was -0.22 kcal/mol.

B15: I782A/Y558A: RcSxph STX binding pocket double mutant I782A/Y558A (protein)
chain: B2 chain with Q559E, Y577A, I801A
For B15, the Kd was 1.2 ± 0.2 nM and the “ΔΔG” value was -1.07 kcal/mol.

B16: I782F: RcSxph STX binding pocket mutant I782F (protein)
chain: B2 chain with Q559E, I801F
With B16 the Kd was 16.1 ± 4.1 nM and the “ΔΔG” value was 0.46 kcal/mol.

B17: F784S: RcSxph STX binding pocket mutant F784S (protein)
chain: B2 chain with Q559E, F803S
In the case of B17, the Kd is reported as 3240 ± 508 nM and the “ΔΔG” value is reported as 3.60 kcal/mol.

B18: MaSxph: Mantella aurantiaca (Golden mantella) saxiphilin, SEQ ID NO: 3 (protein, listed as Mantella aurantiaca)
chain: MALTFQTALYFTIIGLSFVTSSARDVRWCVISDLEQKKCNDLVGSCKVSGITLVCVHRSSTENCMTAIRDEQADAMFLDSGDVYKASMSPYNLKPIIAESYSSHKECLKKRQEALGGANVLGQFVPQCDEKGSYQPQQCYGSTGHCWCVNAIGEEIVGTKTQPGQTQATCERHDQTKCLKDRQKALAKKMIGGFVPQCDEKGNFKPRQCHGSTGYCWCTNANGEKIAATNTPPQQSPPTCERHDLDSCHYAVAVVKKSSIFQFNQLKGKRSCHSGVSKTDGWKAPVSVLVDKNLLSWDRAAKESIEKAVSKFFSDSCIPGATETNLCNQCMGEGGKKCMSSHDEPYYGDHGAFRCLKEDKGDVAFLKNTVLSDTHSEDYELLCPDNTRKPLNKYKECNLGKVPADAVVTRKSGDKIKDINDFLLEAQKKHCQLFSSAHGKDLMFDDSTTQLSLLPPEVDVFFFLGVQWLNTMKTLTADVKPPSKNKVRWCTVNNLEKMKCDDWSAVSGGAIECTEASSPEHCIKQIVKGEADAVTLDVQYMYEALKCGLLPAVEEYHNKDDFGPCKTPGSEIKDFGAKRAVALVKKSNKDINWHNLKGKKSCHTGVGDQAGWIIPVGLISRQIDNCNIDSFFSESCAPGSDTTSNFCKLCIGDPSNPMANTKCSLSDKEAYHGNEGAIRCLVEKGDVAFVHHTAVFENTDGKNPAEWAANLKSEDFEILCLDGSRAPVSNYMTCRLSGVPPRAIVTREESVSDVVRILINQQSLFGRNGFEKDMFQMFSSNKGQNLLFNDGTQCLIEFDRQPRGIMEDYFGKPYYNAVYNTSKCVLPSELTSACTFKHC
With B18 the “STX/F-STX affinity compared with RcSxph” value was “enhanced affinity”, the Kd was 0.4 ± 0.1 nM and the “ΔΔG” value was -1.73 kcal/mol.
